Measurements: US20160145308A1 (SANFORD BURNHAM MEDICAL RESEARCH INSTITUTE, published 2016)
Where no end group is shown, it is not given here. The star is where a group is joined. FITC = O=C1OC2(c3ccc(O)cc3Oc3cc(O)ccc32)c2ccc(NC(=S)*)cc21

B1: FITC-z13 (peptide)
peptide: {FITC}-VRRADNRPG
notes: Synthetic fluorescence-tagged z13 peptide; also called fluorescent FITC-z13; z13 peptide with an N-terminal FITC-tag

Columns and labels:
[1] = molecular target: T1, CNGB3-MYC/His fusion protein (human, UniProt Q9NQW8 1-809); assay: fluorescence microscopy of HeLa cells transfected with CNGB3-MYC; FITC-z13 in the culture medium
T1 construct: Full-length CNGB3 cDNA in pcDNA3.1/myc-His-B, expressed in HeLa and HEK293T cells; also called recombinant CNGB3; not shown: C-terminal myc-His tag from the pcDNA3.1/myc-His-B vector
T1 sequence: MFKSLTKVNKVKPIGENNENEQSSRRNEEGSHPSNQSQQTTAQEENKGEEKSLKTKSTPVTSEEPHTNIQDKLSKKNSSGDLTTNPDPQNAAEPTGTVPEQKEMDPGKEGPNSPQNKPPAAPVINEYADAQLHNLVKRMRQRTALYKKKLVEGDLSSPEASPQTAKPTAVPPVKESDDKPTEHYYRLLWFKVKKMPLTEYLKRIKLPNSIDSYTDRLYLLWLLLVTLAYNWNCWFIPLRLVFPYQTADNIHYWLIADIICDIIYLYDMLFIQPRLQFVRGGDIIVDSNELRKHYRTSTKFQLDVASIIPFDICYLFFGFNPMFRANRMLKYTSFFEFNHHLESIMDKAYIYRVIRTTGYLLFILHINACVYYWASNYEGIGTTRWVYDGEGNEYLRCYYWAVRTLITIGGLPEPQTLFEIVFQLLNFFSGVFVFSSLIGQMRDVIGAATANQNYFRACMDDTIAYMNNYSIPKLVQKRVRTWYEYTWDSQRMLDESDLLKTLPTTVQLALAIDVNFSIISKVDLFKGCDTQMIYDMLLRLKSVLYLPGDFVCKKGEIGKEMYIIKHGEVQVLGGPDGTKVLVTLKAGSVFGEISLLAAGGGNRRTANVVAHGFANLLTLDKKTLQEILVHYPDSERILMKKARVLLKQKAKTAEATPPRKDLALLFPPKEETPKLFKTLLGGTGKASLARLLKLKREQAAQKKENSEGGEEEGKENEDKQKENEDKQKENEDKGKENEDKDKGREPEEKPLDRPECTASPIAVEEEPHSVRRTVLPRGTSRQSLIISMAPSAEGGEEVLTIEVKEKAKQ
Procedure: When FITC-z13 was added to culture medium of CNGB3-MYC-expressing HeLa cells, FITC-z13 bound to sites marked by MYC-epitope expression. […] Antibody specificity was validated by immunostaining of CNGB3-Myc expressed in HeLa cells. This antibody strongly stained glandular epithelia of endometriosis in tissue sections.
CNGB3 cDNA was kindly provided by Dr. Hisao Ueyama, Department of Ophthalomology, Shiga University of Medical Science, Japan. cDNA encoding full-length CNGB3 was excised by HindIII and BsrGI and ligated into the HindIII and Asp718I sites of pcDNA3.1/myc-His-B vector (Invitrogen). HeLa cells were transfected with this vector, and expression of CNGB3-MYC/His fusion protein was determined by immunohistochemistry with an anti-MYC antibody and the anti-CNGB3 antibody (clone 3B2) described above. To test binding of z13 peptide to CNGB3, FITC-z13 was added (5 μg/ml) to the medium of HeLa cells transfected by the above-described vector and incubated at 37° C. for 15 min. Cells were washed with PBS, fixed with 4% PFA in PBS, and observed under a fluorescence microscope.

[2] = molecular target: T1, CNGB3-MYC/His fusion protein; assay: fluorescence microscopy of CNGB3-MYC expressing HEK293T cells, 37° C. for 30 min, Alexa 488-conjugated avidin
Procedure: When dKLAK-z13 was added to culture medium of HEK293T cells transfected by expression vector for CNGB3-MYC, apoptosis was not induced, however. It was realized that this lack of effect could be due to the fact that receptor-bound dKLAK-z13 localizes to the luminal side of endosomes, a prediction supported by the endosome-like pattern of fluorescent z13. To release dKLAK-z13 from the endosomes to the cytoplasm, an endosome-escaping 18-mer peptide […] (SEQ ID NO:38; here abbreviated as HLAH) was devised by replacing lysines in KLAKLAK (SEQ ID NO:39) with histidines, to provide histidine-rich sequences capable of destabilizing endosome membranes at acidic pH (Midoux et al., 2002; Pichon et al., 2001). […] For this experiment, biotin-z13 was bound to CNGB3-MYC expressing HEK293T cells at 37° C. for 30 min with or without HLAH-z13. Cells were stained by Alexa 488-conjugated avidin followed by DAPI nuclear staining.

Binder | binding result [1] | binding result [2]
B1 | binds | 
VRRADNRPG (also: biotinylated (position not given here), also called biotin-z13) [biotinylated z13] |  | binds
